In patent US20100247549A1:
Several values for one entry are separate records, joined by “and”; a condition that tells them apart may be missing. Equal entries are not always repeated.

Target: DENV-4 parental viruses
Assay: cell-based or functional assay

B1: Humanized IgG 5H2 ΔD (IgG1 5H2 with a 9-amino-acid deletion, positions 231-239, at the N-terminus of the CH2 domain) (antibody)
heavy: EVQLLESGPGLVKPSETLSLTCTVSGGSISDFYWSWLRQSPGKGLEWIGYAHSRVSAYYNPSLKSRVTISVDTSKNQLSLRLSAVTAADTALYYCARQGTGTTGVSEDFFDLWGQGTKVIVSLASTKGPSVFPLAPSSKSTSGGTAALGCLVKDYFPEPVTVSWNSGALTSGVHTFPAVLQSSGLYSLSSVVTVPSSSLGTQTYICNVDHKPSNTKVDKKVEPKSCDKTHTCPPCPVFLFPPKPKDTLMISRTPEVTCVVVDVSHEDPEVKFNWYVDGVEVHNAKTKPREEQYNSTYRVVSVLTVLHQDWLNGKEYKCKVSNKALPAPIEKTISKAKGQPREPQVYTLPPSRDELTKNQVSLTCLVKGFYPSDIAVEWESNGQPENNYKTTPPVLDSDGSFFLYSKLTVDKSRWQQGNVFSCSVMHEALHNHYTQKSLSLSPGK
light: not shown
PRNT50 titer: 0.03 µg/mL and 0.05 µg/mL
